What was measured:
[1] = biological target: Enterococcus faecalis coenzyme A persulfide (CoASSH) reductase (Enterococcus faecalis strain OG1RF); experiment: crystal structure; EfCoAPR as isolated from E. coli, with FAD and CoA (PAP moiety seen); crystals in 20% PEG 3350, 0.1 M Bis-Tris propane pH 6.50, 0.2 M sodium iodide; two molecules in the asymmetric unit; 2.05 Å
[2] = biological target: T1, Ef Pta / EfPta (phosphotransacetylase) (Enterococcus faecalis, UniProt A0ACD6TAM5); experiment: thioester formation at […] nm; assay type: biochemical; settings: 5 mM acetylphosphate; 25 mM Tris-HCl, 40 mM KCl, pH 8.0, room temperature, anaerobic; 10 uM to 5 mM CoA
T1 construct: Ni-NTA and Superdex G200; C182 in CoA pocket, R319, S318, D325 in active site

[3] = biological target: T1, Ef Pta / EfPta (phosphotransacetylase); experiment: acetyl-CoA yield by LC-MS after […] s; assay type: biochemical; settings: 150 uM CoASSH as in situ mixture with equimolar CoASH, excess Na2S and CoA disulfide; 5 mM acetylphosphate, pH 8.0, room temperature, anaerobic
purified protein = substrate: CC(=O)SCCNC(=O)CCNC(=O)[C@H](O)C(C)(C)COP(=O)(O)OP(=O)(O)OC[C@H]1O[C@@H](n2cnc3c(N)ncnc32)[C@H](O)[C@@H]1OP(=O)(O)O; experiment: purified protein; assay type: biochemical, Enterococcus faecalis; settings: 5 mM KH2PO4, 25 mM Tris-HCl, 40 mM KCl, pH 8.0, room temperature, anaerobic, 10 uM to 5 mM acetyl-CoA

For “Enterococcus faecalis coenzyme A persulfide (CoASSH) reductase”, the stoichiometry N [1] was 2.

Molecule CoA has a Km [2] of 69 µM.

`CC(C)(COP(=O)(O)OP(=O)(O)OC[C@H]1O[C@@H](n2cnc3c(N)ncnc32)[C@H](O)[C@@H]1OP(=O)(O)O)[C@@H](O)C(=O)NCCC(=O)NCCSS` [CoASSH] was tested, and the “inhibition of acetyl-CoA formation” value [3] was “This inhibition of activity was due to CoASSH specifically”.

B1: Ef Pta / EfPta (phosphotransacetylase) (Enterococcus faecalis OG1RF) (protein)
chain: MYDGFCKYKTGGFIVELFDSLKFKVVRRNIKIVFPEATDPRILGAAARLKSDELVEPILIGDPTDIANAAMARGINTSNFIIINPNDYEKWDEMVEAFVERRNGKATKEDAEKILKDVNYFGTMLTYMGIADGMVSGAIHSTGDTVRPALQIIKTKPGVSRTSGAFLMIRGRDQERYLFSDCAINVNPTAQELAEIAVDSAKTAELFDIEPKVSLLSFSTKGSAKAPEVTKVAEATKIAQELAPEYAIDGELQFDASYVSSVAQLKAPNSKVAGEATVFVFPDLQSGNIGYKIAQRLGNFEAIGPILQGLNKPVSDLSRGANEEDVYKLSIITAAQTLMND
notes: Ni-NTA and Superdex G200; C182 in CoA pocket, R319, S318, D325 in active site
With B1 the Km (purified protein) was 57 (±16) μM.

— article PMC9405070, “Metabolic and Structural Insights into Hydrogen Sulfide Mis-Regulation in Enterococcus faecalis” (Antioxidants, 2022)
